Literature values as cited in PMC3436762.

Molecular target: TRAIL (Homo sapiens) (UniProt P50591)
Details: cited from earlier work

Sequence of UniProt P50591 (P50591 whole entry): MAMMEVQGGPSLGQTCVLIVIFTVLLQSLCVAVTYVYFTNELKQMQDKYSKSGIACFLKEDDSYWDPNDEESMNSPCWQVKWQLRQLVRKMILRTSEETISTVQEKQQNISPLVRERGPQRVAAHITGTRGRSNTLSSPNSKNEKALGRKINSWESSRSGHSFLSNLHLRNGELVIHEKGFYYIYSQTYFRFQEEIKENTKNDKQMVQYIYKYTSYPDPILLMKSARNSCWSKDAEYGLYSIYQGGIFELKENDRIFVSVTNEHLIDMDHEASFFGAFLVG

In the case of osteoprotegerin (from UniProt O00300), the Kd is listed as 400 nM.
